Here are results for three molecules from article PMC9314330, “Structural basis of human TREX1 DNA degradation and autoimmune disease” (Nature Communications, 2022).

Residue numbers refer to the chain shown, from its start. Numbers in names are those of the source.

One data set concerns the target T1, hTREX1 K160R (Homo sapiens, UniProt Q9NSU2 1-242, K160R).
T1 sequence: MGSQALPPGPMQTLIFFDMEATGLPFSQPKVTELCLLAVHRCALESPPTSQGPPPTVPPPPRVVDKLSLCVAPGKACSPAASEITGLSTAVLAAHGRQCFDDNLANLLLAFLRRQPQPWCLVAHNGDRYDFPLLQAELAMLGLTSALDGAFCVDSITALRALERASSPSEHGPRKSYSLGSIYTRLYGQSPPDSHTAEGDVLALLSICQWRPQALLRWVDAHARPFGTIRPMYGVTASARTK
Description: thermal shift (thermofluor); 10 uM protein; 10 or 20 uM DNA; higher than WT; Tm about 63.2 C at 20 uM DNA (mean of source data, column order inferred); EMSA: 20 mM HEPES-NaOH pH 7.8, 75 mM KCl, 10 mM EDTA, 1 mM DTT, 4 C 30 min, 2% agarose; thermofluor: 20 mM Tris-HCl pH 7.5, 75 mM KCl, 1 mM TCEP, DNA preincubated at 4 C 30 min, 20-95 C ramp; crystals: 20 mM HEPES-KOH pH 7.5, 78 mM KCl, 1 mM TCEP over 0.05 M Li2SO4, …. The settings on record: protein: recombinant; tags: none (His-SUMO2 removed by SENP2); chain copies: 2; blunt; self-complementary strand. (In general: A gel shift assay detects complexes by their altered migration in electrophoresis.)

Data set [1] deals with the molecule itself. Description: crystal structure; WT hTREX1 with 22-nt Y-form dsDNA (1:1.3 protein:DNA), 0.05 M Li2SO4, 0.1 M Bis-Tris pH 6.5, 25% PEG-3350, 18 °C; spacegroup P 1 21 1, 3 copies of hTREX1-DNA dimer in the asymmetric unit.
Data set [2] deals with the molecule itself. As to the kind of experiment: crystal structure; apo hTREX1 chimeras, hanging-drop vapor diffusion at 18 °C; spacegroup P 41 21 2, one hTREX1 dimer in the asymmetric unit.

B1: 30-bp dsDNA (dsDNA)
DNA 1: GCTCGAGTCATGACGCGTCATGACTCGAGC
DNA 2: B1 DNA 1
Turning to B1, the binding result with hTREX1 K160R was “binds”.

B2: human TREX1 (wildtype), N-terminal enzymatic domain, amino acids 1-242 (enzyme, UniProt Q9NSU2-3 1-242, looked up)
chain: T1 sequence with R160K
notes: human TREX1, C-terminal truncation, amino acids 1-242 of the 314-residue protein (catalytic domain 1-242, C-terminus 243-314); numbers count on: the 314-residue form; Crystallised with 22-nt Y-form dsDNA (2:2 complex); also called hTREX1; WT hTREX1; source: E. coli BL21-RIL DE3, purified (Ni-NTA, Heparin HP, Superdex S75)
Turning to B2, the binding result in data set [1] was “binds”.

B3: hTREX1 Chi 5.1 (A5T/P8H/P10H), amino acids 1-242 (enzyme, human, UniProt Q9NSU2-3 1-242, looked up)
chain: T1 sequence with A5T, P8H, P10H, R160K
notes: human TREX1, amino acids 1-242 of the 314-residue protein, with three mouse-like mutations; numbers count on: the 314-residue form; also called human TREX1 Chi 5.1; source: E. coli BL21-RIL DE3, purified (Ni-NTA, Heparin HP, Superdex S75)
Consider B3, for which the binding result in data set [2] is “binds”.
